Measured values as given in the supplement of paper PMC10567573.

B1: ZNF449 (parent)
chain: EPHKCPECGKRFLRSSDLYRHQRL
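Further: lentivirally expressed fusions sorted by FACS into six bins by GFP to DsRed ratio, PSI derived from sequencing read proportions per bin multiplied by bin number.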

Variants of: B1
Test: protein stability index of a GFP-peptide fusion (GPS, HEK-293T) (PSI 1-6); higher = more stable
Details: c terminus: a fixed tail appended
Work on EPHRCPECGKRFLRSSDLYRHQRL [K4R] yielded a protein stability index of 3.71. EPHTCPECGKRFLRSSDLYRHQRL [K4T] showed a protein stability index of 4.46. Variant EPHGCPECGKRFLRSSDLYRHQRL [K4G] has a protein stability index of 3.68. EPHACPECGKRFLRSSDLYRHQRL [K4A] gave a protein stability index of 4.5. For EPHQCPECGKRFLRSSDLYRHQRL [K4Q], the protein stability index was 4.57. Work on EPHSCPECGKRFLRSSDLYRHQRL [K4S] yielded a protein stability index of 4.13. Work on EPHDCPECGKRFLRSSDLYRHQRL [K4D] yielded a protein stability index of 4.36. Work on EPHPCPECGKRFLRSSDLYRHQRL [K4P] yielded a protein stability index of 3.42. EPHFCPECGKRFLRSSDLYRHQRL [K4F] showed a protein stability index of 3.98. For EPHICPECGKRFLRSSDLYRHQRL [K4I], the protein stability index was 4.71. Work on EPHVCPECGKRFLRSSDLYRHQRL [K4V] yielded a protein stability index of 4.7. With EPHNCPECGKRFLRSSDLYRHQRL [K4N] the protein stability index was 4.09. With EPHWCPECGKRFLRSSDLYRHQRL [K4W] the protein stability index was 3.65. EPHHCPECGKRFLRSSDLYRHQRL [K4H] showed a protein stability index of 4.09. Variant EPHECPECGKRFLRSSDLYRHQRL [K4E] has a protein stability index of 4.73. EPHLCPECGKRFLRSSDLYRHQRL [K4L] showed a protein stability index of 4.49. With EPHYCPECGKRFLRSSDLYRHQRL [K4Y] the protein stability index was 4.47. EPHCCPECGKRFLRSSDLYRHQRL [K4C] gave a protein stability index of 3.86. Work on DPHKCPECGKRFLRSSDLYRHQRL [E1D] yielded a protein stability index of 4.06. With VPHKCPECGKRFLRSSDLYRHQRL [E1V] the protein stability index was 2.67. With PPHKCPECGKRFLRSSDLYRHQRL [E1P] the protein stability index was 3.19. IPHKCPECGKRFLRSSDLYRHQRL [E1I] showed a protein stability index of 2.6. With QPHKCPECGKRFLRSSDLYRHQRL [E1Q] the protein stability index was 3.12. In the case of HPHKCPECGKRFLRSSDLYRHQRL [E1H], the protein stability index is reported as 3.45. APHKCPECGKRFLRSSDLYRHQRL [E1A] showed a protein stability index of 2.84. Variant KPHKCPECGKRFLRSSDLYRHQRL [E1K] has a protein stability index of 2.79. In the case of GPHKCPECGKRFLRSSDLYRHQRL [E1G], the protein stability index is reported as 3.13. With RPHKCPECGKRFLRSSDLYRHQRL [E1R] the protein stability index was 3.37. MPHKCPECGKRFLRSSDLYRHQRL [E1M] gave a protein stability index of 2.89. SPHKCPECGKRFLRSSDLYRHQRL [E1S] showed a protein stability index of 2.73. LPHKCPECGKRFLRSSDLYRHQRL [E1L] showed a protein stability index of 2.81. WPHKCPECGKRFLRSSDLYRHQRL [E1W] gave a protein stability index of 3.2. CPHKCPECGKRFLRSSDLYRHQRL [E1C] showed a protein stability index of 2.14. Work on FPHKCPECGKRFLRSSDLYRHQRL [E1F] yielded a protein stability index of 2.93. Variant YPHKCPECGKRFLRSSDLYRHQRL [E1Y] has a protein stability index of 3.3. With NPHKCPECGKRFLRSSDLYRHQRL [E1N] the protein stability index was 2.83. Work on TPHKCPECGKRFLRSSDLYRHQRL [E1T] yielded a protein stability index of 2.6. Variant EPHKCPYCGKRFLRSSDLYRHQRL [E7Y] has a protein stability index of 3.66. For EPHKCPFCGKRFLRSSDLYRHQRL [E7F], the protein stability index was 3.25. Work on EPHKCPICGKRFLRSSDLYRHQRL [E7I] yielded a protein stability index of 3.3. EPHKCPSCGKRFLRSSDLYRHQRL [E7S] showed a protein stability index of 4.11. Work on EPHKCPDCGKRFLRSSDLYRHQRL [E7D] yielded a protein stability index of 4.12. Work on EPHKCPKCGKRFLRSSDLYRHQRL [E7K] yielded a protein stability index of 4.14. For EPHKCPNCGKRFLRSSDLYRHQRL [E7N], the protein stability index was 3.81. In the case of EPHKCPCCGKRFLRSSDLYRHQRL [E7C], the protein stability index is reported as 4.37. Variant EPHKCPGCGKRFLRSSDLYRHQRL [E7G] has a protein stability index of 3.74. With EPHKCPWCGKRFLRSSDLYRHQRL [E7W] the protein stability index was 4.05. With EPHKCPRCGKRFLRSSDLYRHQRL [E7R] the protein stability index was 3.17. EPHKCPQCGKRFLRSSDLYRHQRL [E7Q] showed a protein stability index of 3.62. Work on EPHKCPLCGKRFLRSSDLYRHQRL [E7L] yielded a protein stability index of 3.51. In the case of EPHKCPMCGKRFLRSSDLYRHQRL [E7M], the protein stability index is reported as 3.65. EPHKCPACGKRFLRSSDLYRHQRL [E7A] gave a protein stability index of 3.29. EPHKCPTCGKRFLRSSDLYRHQRL [E7T] gave a protein stability index of 3.82. For EPHKCPHCGKRFLRSSDLYRHQRL [E7H], the protein stability index was 3.65. In the case of EPHKCPVCGKRFLRSSDLYRHQRL [E7V], the protein stability index is reported as 3.44. In the case of EPHKCPPCGKRFLRSSDLYRHQRL [E7P], the protein stability index is reported as 2.21. Work on EPHKCCECGKRFLRSSDLYRHQRL [P6C] yielded a protein stability index of 3.75. With EPHKCHECGKRFLRSSDLYRHQRL [P6H] the protein stability index was 3.91. Variant EPHKCMECGKRFLRSSDLYRHQRL [P6M] has a protein stability index of 3.88. Variant EPHKCTECGKRFLRSSDLYRHQRL [P6T] has a protein stability index of 3.52. Variant EPHKCIECGKRFLRSSDLYRHQRL [P6I] has a protein stability index of 3.23. EPHKCWECGKRFLRSSDLYRHQRL [P6W] showed a protein stability index of 3.31. Work on EPHKCNECGKRFLRSSDLYRHQRL [P6N] yielded a protein stability index of 4.17. EPHKCKECGKRFLRSSDLYRHQRL [P6K] showed a protein stability index of 3.62. In the case of EPHKCVECGKRFLRSSDLYRHQRL [P6V], the protein stability index is reported as 3.57. For EPHKCAECGKRFLRSSDLYRHQRL [P6A], the protein stability index was 3.75. With EPHKCFECGKRFLRSSDLYRHQRL [P6F] the protein stability index was 3.22. Variant EPHKCEECGKRFLRSSDLYRHQRL [P6E] has a protein stability index of 4.19. EPHKCYECGKRFLRSSDLYRHQRL [P6Y] showed a protein stability index of 3.53. Variant EPHKCRECGKRFLRSSDLYRHQRL [P6R] has a protein stability index of 3.1. Variant EPHKCQECGKRFLRSSDLYRHQRL [P6Q] has a protein stability index of 3.68. EPHKCSECGKRFLRSSDLYRHQRL [P6S] gave a protein stability index of 3.69. EPHKCGECGKRFLRSSDLYRHQRL [P6G] showed a protein stability index of 3.5. EPHKCLECGKRFLRSSDLYRHQRL [P6L] gave a protein stability index of 3.38. EPHKCDECGKRFLRSSDLYRHQRL [P6D] showed a protein stability index of 4.46. For EMHKCPECGKRFLRSSDLYRHQRL [P2M], the protein stability index was 3.38. EHHKCPECGKRFLRSSDLYRHQRL [P2H] gave a protein stability index of 3.95. With ERHKCPECGKRFLRSSDLYRHQRL [P2R] the protein stability index was 3.54. EGHKCPECGKRFLRSSDLYRHQRL [P2G] gave a protein stability index of 3.81. Variant ESHKCPECGKRFLRSSDLYRHQRL [P2S] has a protein stability index of 4.41. With EYHKCPECGKRFLRSSDLYRHQRL [P2Y] the protein stability index was 3.21. For EQHKCPECGKRFLRSSDLYRHQRL [P2Q], the protein stability index was 3.53. With EEHKCPECGKRFLRSSDLYRHQRL [P2E] the protein stability index was 3.42. With EIHKCPECGKRFLRSSDLYRHQRL [P2I] the protein stability index was 3.18. ELHKCPECGKRFLRSSDLYRHQRL [P2L] gave a protein stability index of 3.63. EAHKCPECGKRFLRSSDLYRHQRL [P2A] gave a protein stability index of 3.5. In the case of ENHKCPECGKRFLRSSDLYRHQRL [P2N], the protein stability index is reported as 3.37. For EKHKCPECGKRFLRSSDLYRHQRL [P2K], the protein stability index was 3.57. ETHKCPECGKRFLRSSDLYRHQRL [P2T] gave a protein stability index of 3.52. Work on EFHKCPECGKRFLRSSDLYRHQRL [P2F] yielded a protein stability index of 3.17. For ECHKCPECGKRFLRSSDLYRHQRL [P2C], the protein stability index was 3.58. In the case of EDHKCPECGKRFLRSSDLYRHQRL [P2D], the protein stability index is reported as 4. EVHKCPECGKRFLRSSDLYRHQRL [P2V] gave a protein stability index of 3.02. With EWHKCPECGKRFLRSSDLYRHQRL [P2W] the protein stability index was 3.22.
